Measurements from the nanobody polyreactivity screen of Harvey et al. (2022).

Experiment: yeast display, Sf9 membrane polyspecificity reagent, FACS + sequencing; frameworks hold sequencing errors
In short: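 Sorting gates, low and high (top ~1%), were placed on anti-HA fluorescence to track expression and on streptavidin fluorescence to track reagent binding. A clone's polyreactivity label is taken from the gate it came out of. The reagent was 10% biotinylated, detergent-solubilized Sf9 membrane, applied for 1 hour at 4 °C to galactose-induced yeast display cells.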

Sequence	polyreactivity (PSR sort gate)
QVQLVESGGGLVQAGGRLRLSCAASGSIFAGYVMGWYRQAPGKERELVAAISKSGGSTYYADSVKGRFTISRDNAKNTVSLQMNSLKPEDTAVYYSAKDHYYVDYDYWGQGTQVTVSS	high polyreactivity
QVQLVESGGGLVQAGGRLRLSCAASGSIFDYNGMGWYRQAPGKERELVATITLSTARTYYADSVKGRFTISRDNAKNTVYLQMNSLKPEDTAVYYCATRYPKFRRRNYWGQGTQVTVSS	high polyreactivity
QVQLVESGGGLVQAGGRLRLSCAASGSIFFAYAMGWYRQAPGKERELVAAITSGVSTNYADSVKGRFTISRDNAKNTVYLQMNSLKPEDTAVYYCNADFDYGFDAGVAVQVVIHDYWGQGTQVTVSS	low polyreactivity
QVQLVESGGGLVQAGGRLRLSCAASGSIFGRNAMGWYRAAPGKERELVAAITGSTYYADSVKGRFTSSRDNAKNTVYLQMNSLKPEDTAVYYCNADYDVGWTYDTEYNYWGQGTQVTVSS	low polyreactivity
QVQLVESGGGLVQAGGRLRLSCAASGSIFIGYAMGWYRPAPGKERELVAAISGSGSSTYYADSVKGRFTISRDNAKNTVYLQMNSLKPEDTAVYYCAARTYSRFTASTYYYWGQGTQVTVSS	high polyreactivity
QVQLVESGGGLVQAGGRLRLSCAASGSIFIYYAMGWYRQAPGKERELVAAISNGGSTNYADSVKGRFTISRDNAKNTVYLQMNSLKPEDTAVYYCNTDWGYFHGVRAYLGYGYWGQGTQVTVSS	low polyreactivity
QVQLVESGGGLVQAGGRLRLSCAASGSIFPANAMGGSRQAPGKERELVAGISERGSSTYYADSVKGRFTISRDNAKNTVYLQMNSLKPEDTAVYYCAADDVGRYWSSTHNWARGDYWGQGTQVTVSS	low polyreactivity
QVQLVESGGGLVQAGGRLRLSCAASGSIFQSYAMGWYRQAPGKERELVAVITGGGGSTYYADSVKGRFTISRDNAKNTVYLQMNSLKPEDTAVYYCAARPVTSYAYGSWGQGTQVTVSS	low polyreactivity
QVQLVESGGGLVQAGGRLRLSCAASGSIFRFYAMGWYRQAPGKERELVASISSGGSTYYADSVKGRFTISRDNAKNTVYLKLNSLKAEDTAVYYCAHGFAQYGVDLDPGDYDYWGQGTQVTVSS	low polyreactivity
QVQLVESGGGLVQAGGRLRLSCAASGSIFRRYAMGWYRQEPGKERELVAVITTDGSTYYADSVKGRFTISRDNAKNTVYLQMNSLKPEDTAVYYCAAEVYVIGDSGYDYWGQGTQVTVSS	low polyreactivity
QVQLVESGGGLVQAGGRLRLSCAASGSIFSRNAMGWDRQAPGQERELVAAITRSGGRTYYADSVKGRCTLSRDNAKTTVYLQMNSLKPEDTAVYYCNALASQEYDYWGQGTQVTVSS	high polyreactivity
QVQLVESGGGLVQAGGRLRLSCAASGSIFSRYAMGWYRQAPGKERELVAAITSRGSGTNYADSVKGRFTISRDNAKNTVYLQMNSLKPEDTAVYYCNAARLPRLGWPTPYLYDYWGQGTQVTVSS	high polyreactivity
QVQLVESGGGLVQAGGRLRLSCAASGSIFSYNAMGWYRQAPGKEREVVATISWSGGSTYYADSVKGPFTISRDYAKNTVFLQMNSLKPEDTGGYSCAARKYGQRYRRDYWGQGTQVTVSS	low polyreactivity
QVQLVESGGGLVQAGGRLRLSCAASGSIFTYYVMGWYRQAPGKERELVAAITISGGSTYYADSVKGRFTISRDNAKNTVYLQMNRLNPEDTAVYYCAAEEVYYEADGFQNSYDYWGQGTQVTVSS	high polyreactivity
QVQLVESGGGLVQAGGRLRLSCAASGSIFVPNAMGWYRQALGKDRELVAAITYSGVDTYYADSVMGRFTISRDNAKNTVYLQMNSLKPEDTAVYYCAADNGRVGYDYWGQGTQVSVSS	low polyreactivity
QVQLVESGGGLVQAGGRLRLSCAASGSIFVYNALGWYRQAPGKQRELVAGITFIGGSTYYAESVKGRFTISRDNAKNTVYVQMNSRKPEDTAVYYCNKFPVSPPSYYWGQGTQVTVSS	low polyreactivity
QVQLVESGGGLVQAGGRLRLSCAASGSIFYYNVMGWYRQAHGKQRELVAAITWSGGTTYYADSVKGRFTISRDNAKNTVYLQMNSLKPEDTAVYYCIAASPYSWGYRRGYLGQGTQVTVSS	high polyreactivity
